According to the RNAGym collection of RNA variant scans (doi:10.1093/molbev/msab373):

B1: Azoarcus group I ribozyme (parent)
chain: GUGCCUUGCGCCGGGAAACCACGCAAGGGAUGGUGUCAAAUUCGGCGAAACCUAAGCGCCCGCCCGGGCGUAUGGCAACGCCGAGCCAAGCUUCGGCGCCUGCGCCGAUGAAGGUGUAGAGACUAGACGGCACCCACCUAAGGCAAACGCUAUGGUGAAGGCAUAGUCCAGGGAGUGGCGAAAGUCACACAAACCGG

Variants of: B1
Test: reverse-splicing fitness (ratio to wild type); higher = more active; in vitro selection; Mg2+ level not given
Outline: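 An in vitro group I ribozyme library with randomized positions was T7-transcribed and gel-purified. In triplicate, 10 pmol RNA in EPPS pH 7.5 was reacted with 50 pmoles of a 30-nt RNA substrate for 1 h at 37 °C across several added MgCl2 levels (1–48 mM), then stopped with EDTA. Products were reverse transcribed from a substrate-complementary primer, PCR-amplified and sequenced (HiSeq 4000). Fitness is a variant's read proportion after selection over that before, normalised to wild type.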

Row | Variant | reverse-splicing fitness
1 | C82U A111U A120G A145C C169U U176A | 0.0194
2 | C82U A111U A120G C169G U176A | 0.0203
3 | C82U A111U A120G C169G U176C | 0.0225
4 | C82U A111U A120G C169G U176G | 0.00437
5 | C82U A111U A120G C150G C169G U176G | 0.00425
6 | C82U A111U A120G C150G C169G U176C | 0.00449
7 | C82U A111U A120G C150G C169G U176A | 0.00605
8 | C82U A111U A120G C150A C169G U176G | 0.00529
9 | C82U A111U A120G C150A C169G U176C | 0.0213
10 | C82U A111U A120G C150A C169G U176A | 0.0221
11 | C82U A111U A120G A145C C150U C169G | 0.00792
12 | C82U A111U A120G A145C C150U C169A | 0.00726
13 | C82U A111U A120G A145C C150U C169U | 0.00734
14 | C82U A111U A120G A145C C150G C169G U176G | 0.00424
15 | C82U A111U A120G A145C C150G C169G U176A | 0.00849
16 | C82U A111U A120G A145C C150G C169G U176C | 0.0069
17 | C82U A111U A120G A145G C169A U176A | 0.0205
18 | C82U A111U A120G A145G C169A U176C | 0.031
19 | C82U A111U A120G A145G C169A U176G | 0.00433
20 | C82U A111U A120U A145C C150G C169U | 0.00284
21 | C82U A111U A120U A145C C150G C169A | 0.00266

Row | Variant | reverse-splicing fitness
22 | C82U A111U A120U A145C C150G C169G | 0.00307
23 | C82U A111U A120G A145G C169U U176G | 0.00458
24 | C82U A111U A120G A145G C169U U176A | 0.0196
25 | C82U A111U A120G A145G C169U U176C | 0.0159
26 | C82U A111U A120U A145C C150A C169G U176G | 0.00189
27 | C82U A111U A120U A145C C150A C169G U176A | 0.00269
28 | C82U A111U A120U A145C C150A C169G U176C | 0.00255
29 | C82U A111U A120U A145C C150U | 0.00815
30 | C82U A111U A120U A145C C150A | 0.00466
31 | C82U A111U A120U A145C C150G | 0.00588
32 | C82U A111U A120G A145U C150G C169U U176G | 0.00463
33 | C82U A111U A120G A145U C150G C169U U176C | 0.0111
34 | C82U A111U A120G A145U C150G C169U U176A | 0.0116
35 | C82U A111U A120G C150A C169A U176C | 0.0173
36 | C82U A111U A120G C150A C169A U176G | 0.00561
37 | C82U A111U A120G C150A C169A U176A | 0.0189
38 | C82U A111U A120G A145U C150A C169A U176C | 0.0092
39 | C82U A111U A120G A145U C150A C169A U176A | 0.0137
40 | C82U A111U A120G A145U C150A C169A U176G | 0.00508
41 | C82U A111U A120G A145U C150U U176G | 0.00443
42 | C82U A111U A120G A145U C150U U176C | 0.013

Row | Variant | reverse-splicing fitness
43 | C82U A111U A120G A145U C150U U176A | 0.00953
44 | C82U A111U A120G A145C C150U C169G U176G | 0.00484
45 | C82U A111U A120G A145C C150U C169G U176C | 0.0111
46 | C82U A111U A120G A145C C150U C169G U176A | 0.0216
47 | C82U A111U A120G A145C C150G C169A U176A | 0.00764
48 | C82U A111U A120G A145C C150G C169A U176C | 0.006
49 | C82U A111U A120G A145C C150G C169A U176G | 0.00478
50 | C82U A111U A120G A145G C169U | 0.00849
51 | C82U A111U A120G A145G C169A | 0.01
52 | C82U A111U A120G A145G C169G | 0.00995
53 | C82U A111U A120U A145C C150A C169A U176A | 0.00203
54 | C82U A111U A120U A145C C150A C169A U176G | 0.00264
55 | C82U A111U A120U A145C C150A C169A U176C | 0.00217
56 | C82U A111U A120G C150G | 0.00696
57 | C82U A111U A120G C150A | 0.00947
58 | C82U A111U A120G C150U | 0.0114
59 | C82U A111U A120G A145U C150U C169A U176G | 0.00462
60 | C82U A111U A120G A145U C150U C169A U176C | 0.00959
61 | C82U A111U A120G A145U C150U C169A U176A | 0.0127
62 | C82U A111U A120G A145C C169A U176G | 0.00391
63 | C82U A111U A120G A145C C169A U176C | 0.00603

Row | Variant | reverse-splicing fitness
64 | C82U A111U A120G A145C C169A U176A | 0.00993
65 | C82U A111U A120U A145G | 0.0251
66 | C82U A111U A120U A145C | 0.0211
67 | C82U A111U A120G A145G C150U | 0.0119
68 | C82U A111U A120G A145G C150G | 0.00732
69 | C82U A111U A120G A145G C150A | 0.00801
70 | C82U A111U A120U A145G C150A C169G U176A | 0.00789
71 | C82U A111U A120U A145G C150A C169G U176G | 0.00241
72 | C82U A111U A120U A145G C150A C169G U176C | 0.0045
73 | C82U A111U A120U A145G C150A C169A U176G | 0.00245
74 | C82U A111U A120U A145G C150A C169A U176C | 0.00382
75 | C82U A111U A120U A145G C150A C169A U176A | 0.0063
76 | C82U A111U A120G A145U | 0.0147
77 | C82U A111U A120G A145G | 0.0162
78 | C82U A111U A120G A145C C150U C169U U176C | 0.00897
79 | C82U A111U A120G A145C C150U C169U U176G | 0.00401
80 | C82U A111U A120G A145C C150U C169U U176A | 0.0187
81 | C82U A111U A120U A145C C150U C169G U176A | 0.00283
82 | C82U A111U A120U A145C C150U C169G U176G | 0.00171
83 | C82U A111U A120U A145C C150U C169G U176C | 0.00287
